Experimental findings from PMC5462952 are described below.

This experiment concerns the target HA-tagged C-terminal region of CaV1.3α (aa 1509–2203) (rat) (UniProt P27732).
Sequence of UniProt P27732 (P27732 1509-2203): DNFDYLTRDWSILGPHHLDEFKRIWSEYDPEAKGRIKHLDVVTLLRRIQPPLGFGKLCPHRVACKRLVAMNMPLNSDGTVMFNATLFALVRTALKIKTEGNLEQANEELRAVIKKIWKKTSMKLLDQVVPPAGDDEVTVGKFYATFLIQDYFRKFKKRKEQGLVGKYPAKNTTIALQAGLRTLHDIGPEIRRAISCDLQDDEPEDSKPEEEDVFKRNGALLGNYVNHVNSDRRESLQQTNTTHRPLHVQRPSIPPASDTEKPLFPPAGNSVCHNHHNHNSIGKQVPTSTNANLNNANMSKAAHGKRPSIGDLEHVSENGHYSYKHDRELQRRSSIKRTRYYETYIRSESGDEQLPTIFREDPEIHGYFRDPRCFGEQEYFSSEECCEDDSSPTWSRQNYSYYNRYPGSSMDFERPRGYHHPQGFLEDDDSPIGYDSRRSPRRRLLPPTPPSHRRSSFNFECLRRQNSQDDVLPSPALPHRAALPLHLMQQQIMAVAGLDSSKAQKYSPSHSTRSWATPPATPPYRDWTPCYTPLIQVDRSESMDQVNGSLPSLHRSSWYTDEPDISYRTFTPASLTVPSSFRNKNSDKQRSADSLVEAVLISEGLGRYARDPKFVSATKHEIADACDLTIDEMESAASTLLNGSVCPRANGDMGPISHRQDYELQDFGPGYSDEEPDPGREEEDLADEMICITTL

“full-length untagged RIM2α (from UniProt Q9EQZ7-1 1-1530) (natural protein)”: the shift of the voltage-dependence of CaV1.3 channel activation in HEK293/SK3-1 cells co-expressing RIM2α is 3 mV.
